Assays:
[1] = target: Kif5B (UniProt P33176); experiment: anti-GFP co-IP, Western blot; settings: reference: eGFP-HURP wild type; sites S627
[2] = target: Importin β (UniProt Q14974); experiment: anti-GFP co-IP, Western blot; settings: reference: eGFP-HURP wild type; sites S627

binding against the reference [1]: lost | binding against the reference [2]: lost
Substance: HURP 1-846 (from UniProt Q15398) eGFP-HURP S627A
